Results on 14 molecules are retold here after patent publication US20160346402A1 (Bayer, published 2016).

The target in assay [1] is T1, hTNFRSF12 amino acids a28-80-S40R-hIgG1-Fc (human).
T1 construct: TWEAKR-Fc mutein, coated on the ELISA plate; also called TPP-1987
Nature of the assay: ELISA: TWEAKR-Fc construct coated at 62 ng/ml, biotinylated IgG titrated from 100 nM; token + marks IC50 of 1 to […] pM. How it is done: (§1) To obtain dose-reaction data, the different TWEAKR-Fc muteins were coated at a low concentration (62 ng/ml) onto a 384-well Maxisorb ELISA plate, and a serial 2-fold dilution of biotinylated IgG beginning with a concentration of 100 nM was used as a soluble binding partner. Detection was carried out using streptavidin-HRP and Amplex Red.
(§2) IgGs were biotinylated using an about 2-fold molar excess of biotin-LC-NHS (Pierce; Cat. No. 21347) according to the instructions of the manufacturer and desalted using Zeba desalting columns (Pierce; Cat. No. 89889).

Assay [2] concerns the target T2, hTNFRSF12 amino acids a28-80-M50A-hIgG1-Fc (human).
T2 construct: TWEAKR-Fc mutein, coated on the ELISA plate; also called TPP-1988
The description is as above. How it is done:
as §1, §2

The target in assay [3] is T3, hTNFRSF12 amino acids a28-80-hIgG1-Fc (human).
T3 construct: wild-type TWEAKR-Fc (dimeric Fc fusion), coated on the ELISA plate; also called TPP-599; HUMAN-TNFRSF12Aaa28-80-hIgG1-Fc
Described as above. How it is done:
as §1, §2

In assay [4] the target is T4, hTNFRSF12 amino acids a28-80-H60K-hIgG1-Fc (human).
T4 construct: TWEAKR-Fc mutein, coated on the ELISA plate; also called TPP-1989
The description is as above. How it is done: as §1, §2

For assay [5], the target named is T5, hTNFRSF12 amino acids a28-80-T33Q-hIgG1-Fc (human).
T5 construct: TWEAKR-Fc mutein, coated on the ELISA plate; also called TPP-1986
Described as above. How it is done: as §1, §2

Assay [6] deals with T6, hTNFRSF12 amino acids a28-80-L65Q-hIgG1-Fc (human).
T6 construct: TWEAKR-Fc mutein, coated on the ELISA plate
The description is as above. How it is done: as §1, §2

Assay [7] deals with T7, TPP-2305, hTNFRSF12 amino acids a28-80 (recombinant human TWEAKR protein) (human, UniProt Q9NP84 28-80).
T7 construct: Soluble monomeric antigen, injected as analyte over the captured antibodies; Bought protein
The experiment in a line: SPR (Biacore T100), antibody captured, TWEAKR TPP-2305 as analyte, 1:1 model. How it is done: The antibodies were immobilized on a CM5 sensor chip using an indirect capture reagent, anti-human IgG(Fc). Reagents of the “Human Antibody Capture Kit” (BR-1008-39, GE Healthcare Biacore, Inc.) were used as described by the manufacturer.
Sensorgrams were generated after in-line reference cell correction, followed by subtraction of the buffer sample. The dissociation constant (KD) was calculated based on the ratio of association (kₒₙ) and dissociation (koff) constants, obtained by fitting sensorgrams using a 1:1 first order binding model.

B1: 136.1(TPP-2194) (antibody, mouse IgG2a, kappa, V domains shown)
VH: EVKLEESGGGLVQPGGSMKLSCVASGFTFNNYWMSWVRQSPEKGLEWLAEIRLKSDNYATHYAESVKGKFTISRDDSKSRLYLQMNNLRAENTGIYYCTGGFADYFDYWGQGTTLTVSS
VL: DIVLTQSPASLTVSLGQRATISCRASQSVSTSSYSYMQWYQQRPGQPPKLLIKYATNLDSGVPARFSGSGSGTDFTLNIHPVEEEDAATYYCQHSWEIPYTFGGGTKLEIKR
notes: murine IgG2a; variable domains from WO2009/020933 with a murine IgG2 constant region added; biotinylated IgG in the ELISA
Consider B1, for which the binding result in assay [1], in assay [2], in assay [3], in assay [4], in assay [5] and in assay [6] was “binds” in each case.

B2: 18.3.3(TPP-2193) (antibody, mouse IgG2a, kappa, V domains shown)
VH: EVKLGESGGGLVQPGGSMKLSCVASGFPFTKYWMNWVRQSPEKGLEWVAEIRLKSDNYATHYAESAKGRFTISRDDSRSSVYLQMNNLRAEDTAIYYCSPTYADTMDYWGQGTSVTVSS
VL: DIVLTQSPASLAVSLGQRATISCKASQSVSTSTYSYMQWYQQRPGQSPKLLIKYASKLDSGVPARFSGSGSGTDFTLNIHPVEEEDTATYYCQHSWELPYTFGGGTRLEIKR
notes: Comparative antibody, murine IgG2a; variable domains from WO2009/020933 with added constant regions
For the molecule B2, in assay [7], the Kd was 1.7 nM, the off-rate (koff) is 0.0285 s⁻¹ and the kon came out at 1.64e+07 M⁻¹ s⁻¹.

B3: 136.1(TPP-2194) (antibody, mouse IgG2a, kappa, V domains shown)
VH: EVKLEESGGGLVQPGGSMKLSCVASGFTFNNYWMSWVRQSPEKGLEWLAEIRLKSDNYATHYAESVKGKFTISRDDSKSRLYLQMNNLRAENTGIYYCTGGFADYFDYWGQGTTLTVSS
VL: DIVLTQSPASLTVSLGQRATISCRASQSVSTSSYSYMQWYQQRPGQPPKLLIKYATNLDSGVPARFSGSGSGTDFTLNIHPVEEEDAATYYCQHSWEIPYTFGGGTKLEIKR
notes: as for B2
For B3, in assay [7], the equilibrium dissociation constant (Kd) was 0.8 nM, the koff was 0.0324 s⁻¹ and the on-rate (kon) worked out at 3.84e+07 M⁻¹ s⁻¹.

B4: P3G5(TPP-2195) (antibody, mouse IgG2a, kappa, V domains shown)
VH: QVQLQQSGPEVVRPGVSVKISCKGSGYTFTDYGIHWVKQSHAKSLEWIGVISTYNGYTNYNQKFKGKATMTVDKSSSTAYMELARLTSEDSAIYYCARAYYGNLYYAMDYWGQGTSVTVSS
VL: DIVLTQSPASLAVSLGQRATISCRANKSVSTSSYSYMHWYQQKPGQPPKLLIKYASNLESGVPARFSGSGSGTDFILNIHPVEEEDAATYYCQHSRELPFTFGSGTKLEIKR
notes: Comparative antibody, murine IgG2a; variable domains from WO2009/140177 with added constant regions
As to B4, in assay [7], the dissociation constant (Kd) turned out to be 0.5 nM, the koff worked out at 0.00122 s⁻¹ and the on-rate (kon) stood at 2.31e+06 M⁻¹ s⁻¹.

B5: P4A8(TPP-1324) (antibody, human IgG1, kappa, V domains shown)
VH: QVQLVQSGAEVKKPGASVKVSCKGSGYTFTDYGMHWVRQAPGQGLEWMGVISTYNGYTNYNQKFKGRVTMTVDKSTSTAYMELRSLRSDDTAVYYCARAYYGNLYYAMDYWGQGTLVTVSS
VL: DIVLTQSPASLAVSLGQRATISCRASKSVSTSSYSYMHWYQQKPGQPPKLLIKYASNLESGVPARFSGSGSGTDFSLNIHPMEEDDTAMYFCQHSRELPFTFGGGTKLEIKR
notes: Comparative antibody, human IgG1; variable domains from WO2009/140177 with added constant regions
Take B5: in assay [7], the equilibrium dissociation constant (Kd) amounted to 2.3 nM, the koff was found to be 0.0027 s⁻¹ and the on-rate (kon) is 1.2e+06 M⁻¹ s⁻¹.

B6: PDL-192(TPP-1104) (antibody, human IgG1, kappa, V domains shown)
VH: QVELVESGGGLVQPGGSLRLSCAASGFTFSSYWMSWVRQAPGKGLEWVAEIRLKSDNYATHYAESVKGRFTISRDDSKNSLYLQMNSLRAEDTAVYYCTGYYADAMDYWGQGTLVTVSS
VL: DIQMTQSPSSLSASVGDRVTITCRASQSVSTSSYSYMHWYQQKPGKAPKLLIKYASNLESGVPSRFSGSGSGTDFTLTISSLQPEDFATYYCQHSWEIPYTFGGGTKVEIKR
notes: human IgG1; variable domains from WO2009/020933 with a human IgG1 constant region added; biotinylated IgG in the ELISA
As to B6, the binding result in assay [2] is listed as “binds”.

B7: TPP-883 (antibody, human IgG1, kappa, V domains shown)
VH: EVQLLESGGGLVQPGGSLRLSCAASGFTFSPYPMMWVRQAPGKGLEWVSYISPSGGKTHYADSVKGRFTISRDNSKNTLYLQMNSLRAEDTAVYYCARGGDGYFDYFDYWGQGTLVTVSS
VL: DIQMTQSPATLSASVGDRVTITCRASQSISSYLNWYQQKPGKAPKLLIYAASSLQSGVPSRFSGSGSGTDFTLTISSLQPEDFATYYCQQSYSSPGITFGPGTKVEIKR
notes: human IgG1
For the molecule B7, in assay [7], the Kd worked out at 206 nM, the koff is 0.91 s⁻¹ and the kon is 4.4e+06 M⁻¹ s⁻¹.

B8: TPP-2148 (antibody, human IgG1, kappa, V domains shown)
VH: EVQLLESGGGLVQPGGSLRLSCAASGFTFSPYPMMWVRQAPGKGLEWVSYISPSGGKTHYADSVKGRFTISRDNSKNTLYLQMNSLRAEDTAVYYCARGGDTYFDYFDYWGQGTLVTVSS
VL: DIQMTQSPATLSASVGDRVTITCRASQSISSYLNWYQQKPGKAPKLLIYQASSLQSGVPSRFSGSGSGTDFTLTISSLQPEDFATYYCQQSYTSPFITFGPGTKVEIKR
notes: human IgG1
On to B8, for which, in assay [7], the Kd is 24.5 nM, the koff turned out to be 0.13 s⁻¹ and the kon came out at 5.1e+06 M⁻¹ s⁻¹.

B9: TPP-2093 (antibody, human IgG1, kappa, V domains shown)
VH: EVQLLESGGGLVQPGGSLRLSCAASGFTFSPYPMMWVRQAPGKGLEWVSYISPSGGSTHYADSVKGRFTISRDNSKNTLYLQMNSLRAEDTAVYYCARGGDTYFDYFDYWGQGTLVTVSS
VL: DIQMTQSPSSLSASVGDRVTITCRASQSISSYLNWYQQKPGKAPKLLIYQASSLQSGVPSRFSGSGSGTDFTLTISSLQPEDFATYYCQQSYTSPFITFGQGTKVEIKR
notes: human IgG1
Consider B9, for which, in assay [7], the Kd was determined as 22.1 nM, the off-rate constant (koff) came to 0.09 s⁻¹ and the kon was 4.1e+06 M⁻¹ s⁻¹.

B10: TPP-2084 (antibody, human IgG1, kappa, V domains shown)
VH: EVQLLESGGGLVQPGGSLRLSCAASGFTFSPYPMMWVRQAPGKGLEWVSYISPSGGSTHYADSVKGRFTISRDNSKNTLYLQMNSLRAEDTAVYYCARGGDTYFDYFDYWGQGTLVTVSS
VL: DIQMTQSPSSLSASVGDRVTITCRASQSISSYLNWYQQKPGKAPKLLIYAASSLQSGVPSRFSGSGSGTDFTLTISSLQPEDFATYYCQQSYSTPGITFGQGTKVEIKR
notes: human IgG1
Take B10: in assay [7], the dissociation constant (Kd) stood at 27.6 nM, the off-rate (koff) was found to be 0.11 s⁻¹ and the kon is 4.2e+06 M⁻¹ s⁻¹.

B11: TPP-2090 (antibody, human IgG1, kappa, V domains shown)
VH: EVQLLESGGGLVQPGGSLRLSCAASGFTFSPYPMIWVRQAPGKGLEWVSYISPSGGSTHYADSVKGRFTISRDNSKNTLYLQMNSLRAEDTAVYYCARGGDTYFDYFDYWGQGTLVTVSS
VL: DIQMTQSPSSLSASVGDRVTITCRASQSISGYLNWYQQKPGKAPKLLIYQASSLQSGVPSRFSGSGSGTDFTLTISSLQPEDFATYYCQQSYTSPFITFGQGTKVEIKR
notes: human IgG1; also called anti-TWEAKR AK-1
Consider B11, for which, in assay [7], the dissociation constant Kd was found to be 12.4 nM, the off-rate (koff) was 0.11 s⁻¹ and the kon came to 9.1e+06 M⁻¹ s⁻¹.

B12: TPP-1538 (antibody, human IgG1, kappa)
light: AQDIQMTQSPATLSASVGDRVTITCRASQSISSYLNWYQQKPGKAPKLLIYAASSLQSGVPSRFSGSGSGTDFTLTISSLQPEDFATYYCQQSYSSPGITFGPGTKVEIKRTVAAPSVFIFPPSDEQLKSGTASVVCLLNNFYPREAKVQWKVDNALQSGNSQESVTEQDSKDSTYSLSSTLTLSKADYEKHKLYACEVTHQGLSSPVTKSFNRGEC
heavy: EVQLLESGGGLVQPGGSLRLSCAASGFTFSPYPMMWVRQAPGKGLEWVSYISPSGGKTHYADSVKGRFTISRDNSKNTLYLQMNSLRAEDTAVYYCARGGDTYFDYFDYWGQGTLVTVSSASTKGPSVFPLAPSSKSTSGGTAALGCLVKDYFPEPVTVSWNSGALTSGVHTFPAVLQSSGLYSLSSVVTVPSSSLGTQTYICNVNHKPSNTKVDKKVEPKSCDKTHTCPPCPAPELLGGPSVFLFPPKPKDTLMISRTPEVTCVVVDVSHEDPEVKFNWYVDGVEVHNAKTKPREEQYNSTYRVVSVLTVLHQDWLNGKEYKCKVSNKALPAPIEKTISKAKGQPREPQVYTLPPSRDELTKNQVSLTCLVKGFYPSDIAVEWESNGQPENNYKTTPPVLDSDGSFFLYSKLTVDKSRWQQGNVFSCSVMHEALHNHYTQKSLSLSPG
notes: human IgG1
Consider B12, for which, in assay [7], the Kd turned out to be 27.6 nM, the koff was determined as 0.11 s⁻¹ and the on-rate (kon) was found to be 4.2e+06 M⁻¹ s⁻¹.

B13: TPP-2149 (antibody, human IgG1, kappa, V domains shown)
VH: EVQLLESGGGLVQPGGSLRLSCAASGFTFSPYPMIWVRQAPGKGLEWVSYISPSGGKTHYADSVKGRFTISRDNSKNTLYLQMNSLRAEDTAVYYCARGGDTYFDYFDYWGQGTLVTVSS
VL: DIQMTQSPATLSASVGDRVTITCRASQSISGYLNWYQQKPGKAPKLLIYQASSLQSGVPSRFSGSGSGTDFTLTISSLQPEDFATYYCQQSYTSPFITFGPGTKVEIKR
notes: human IgG1
In the case of B13, in assay [7], the Kd stood at 12.1 nM, the koff came to 0.1 s⁻¹ and the association rate constant (kon) came out at 8.4e+06 M⁻¹ s⁻¹.

B14: TPP-2077 (antibody, human IgG1, kappa)
light: DIQMTQSPATLSASVGDRVTITCRASQSISSYLNWYQQKPGKAPKLLIYAASSLQSGVPSRFSGSGSGTDFTLTISSLQPEDFATYYCQQSYSSPGITFGPGTKVEIKRTVAAPSVFIFPPSDEQLKSGTASVVCLLNNFYPREAKVQWKVDNALQSGNSQESVTEQDSKDSTYSLSSTLTLSKADYEKHKLYACEVTHQGLSSPVTKSFNRGEC
heavy: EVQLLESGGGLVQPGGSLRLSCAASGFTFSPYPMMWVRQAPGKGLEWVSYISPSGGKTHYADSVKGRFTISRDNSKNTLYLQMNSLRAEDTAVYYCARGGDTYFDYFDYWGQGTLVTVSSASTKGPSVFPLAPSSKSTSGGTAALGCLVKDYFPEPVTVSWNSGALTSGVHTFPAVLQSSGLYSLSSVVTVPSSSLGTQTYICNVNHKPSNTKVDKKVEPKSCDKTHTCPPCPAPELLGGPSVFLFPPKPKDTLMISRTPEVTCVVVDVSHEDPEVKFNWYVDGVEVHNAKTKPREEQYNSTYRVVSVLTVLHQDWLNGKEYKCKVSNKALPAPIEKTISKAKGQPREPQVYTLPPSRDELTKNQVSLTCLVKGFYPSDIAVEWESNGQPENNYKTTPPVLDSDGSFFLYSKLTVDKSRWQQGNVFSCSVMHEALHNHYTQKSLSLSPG
notes: human IgG1
Regarding B14, in assay [7], the Kd came out at 28.9 nM, the koff amounted to 0.086 s⁻¹ and the kon is 3e+06 M⁻¹ s⁻¹.
